Entries after “also recorded” stand apart in the source; their conditions may differ.
Assays:
ovalbumin, P01012 = target: T1, ovalbumin, P01012
T1 chain: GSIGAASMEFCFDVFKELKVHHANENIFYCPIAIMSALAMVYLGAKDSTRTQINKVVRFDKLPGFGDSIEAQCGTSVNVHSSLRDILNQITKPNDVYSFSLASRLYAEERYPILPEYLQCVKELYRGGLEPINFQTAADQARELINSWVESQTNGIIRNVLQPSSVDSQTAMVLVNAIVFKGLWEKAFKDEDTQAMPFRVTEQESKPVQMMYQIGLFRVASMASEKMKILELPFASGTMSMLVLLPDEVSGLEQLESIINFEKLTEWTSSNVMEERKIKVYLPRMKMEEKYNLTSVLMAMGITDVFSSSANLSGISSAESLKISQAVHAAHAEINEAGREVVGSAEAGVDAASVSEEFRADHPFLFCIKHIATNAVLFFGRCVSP

[1] = target: insulin A chain wherein cysteine residue had been oxidized (Sigma)
Chain of insulin A chain wherein cysteine residue had been oxidized (Sigma) (chain, as listed by the source): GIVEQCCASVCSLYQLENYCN

Protein	groups of 1H-15N HSQC signals of 15N-labeled ovalbumin glutamine residues after 6 hours (ovalbumin, P01012)	15N-labeling rate of the ovalbumin glutamine residue giving signal "a" (ovalbumin, P01012)	also measured
Sg4 mutant MTG (residue Nos. 241 to 252 replaced with 3 glycine residues) (protein) DSDDRVTPPAEPLDRMPDPYRPSYGRAETVVNNYIRKWQQVYSHRDGRKQQMTEEQREWLSYGCVGVTWVNSGQYPTNRLAFASFDEDRFKNELKNGRPRSGETRAEFEGRVAKESFDEEKGFQRAREVASVMNRALENAHDESAYLDNLKKELANGNDALRNEDARSPFYSALRNTPSFKERNGGNHDPSRMKAVIYSKHFWSGQDRSSSADKRKYGDPDAFRPAPGTGLVDMSRDRNIGGGNFDYGWFGAQTEADADKTVWTHGNHYHAPNGSLGAMHVYESKFRNWSEGYSDFDRGAYVITFIPKSWNTAPDKVKQGWP	only 3 groups and 2 groups of the signals were found when Sg4 and Sg7 were used, respectively		
Ser-type MTG (mutant in which Asp1 has been removed, starts with Ser2) (protein) SDDRVTPPAEPLDRMPDPYRPSYGRAETVVNNYIRKWQQVYSHRDGRKQQMTEEQREWLSYGCVGVTWVNSGQYPTNRLAFASFDEDRFKNELKNGRPRSGETRAEFEGRVAKESFDEEKGFQRAREVASVMNRALENAHDESAYLDNLKKELANGNDALRNEDARSPFYSALRNTPSFKERNGGNHDPSRMKAVIYSKHFWSGQDRSSSADKRKYGDPDAFRPAPGTGLVDMSRDRNIPRSPTSPGEGFVNFDYGWFGAQTEADADKTVWTHGNHYHAPNGSLGAMHVYESKFRNWSEGYSDFDRGAYVITFIPKSWNTAPDKVKQGWP			15N-labeling rate of the ovalbumin glutamine residue giving signal "a" (1H-15N HSQC peak intensity vs. reaction time) (ovalbumin, P01012): more rapidly 15N-labeled when it was reacted with the Ser-type rather than when reacted with the wild type
Sg7 mutant MTG (residue Nos. 278 to 287 replaced with 3 glycine residues) (protein) DSDDRVTPPAEPLDRMPDPYRPSYGRAETVVNNYIRKWQQVYSHRDGRKQQMTEEQREWLSYGCVGVTWVNSGQYPTNRLAFASFDEDRFKNELKNGRPRSGETRAEFEGRVAKESFDEEKGFQRAREVASVMNRALENAHDESAYLDNLKKELANGNDALRNEDARSPFYSALRNTPSFKERNGGNHDPSRMKAVIYSKHFWSGQDRSSSADKRKYGDPDAFRPAPGTGLVDMSRDRNIPRSPTSPGEGFVNFDYGWFGAQTEADADKTVWTHGNHGGGMHVYESKFRNWSEGYSDFDRGAYVITFIPKSWNTAPDKVKQGWP	only 3 groups and 2 groups of the signals were found when Sg4 and Sg7 were used, respectively		
del 1-2 mutant MTG (residue Nos. 1 and 2 removed) (protein) DDRVTPPAEPLDRMPDPYRPSYGRAETVVNNYIRKWQQVYSHRDGRKQQMTEEQREWLSYGCVGVTWVNSGQYPTNRLAFASFDEDRFKNELKNGRPRSGETRAEFEGRVAKESFDEEKGFQRAREVASVMNRALENAHDESAYLDNLKKELANGNDALRNEDARSPFYSALRNTPSFKERNGGNHDPSRMKAVIYSKHFWSGQDRSSSADKRKYGDPDAFRPAPGTGLVDMSRDRNIPRSPTSPGEGFVNFDYGWFGAQTEADADKTVWTHGNHYHAPNGSLGAMHVYESKFRNWSEGYSDFDRGAYVITFIPKSWNTAPDKVKQGWP			reactivity to the ovalbumin glutamine residue giving signal "a" (1H-15N HSQC peak intensity vs. reaction time) (ovalbumin, P01012): the reactivity of each of del 1-2 and del 1-3 was improved as compared with that of the wild type
transglutaminase derived from Streptoverticillium mobaraense (MTG), wild type (protein) DSDDRVTPPAEPLDRMPDPYRPSYGRAETVVNNYIRKWQQVYSHRDGRKQQMTEEQREWLSYGCVGVTWVNSGQYPTNRLAFASFDEDRFKNELKNGRPRSGETRAEFEGRVAKESFDEEKGFQRAREVASVMNRALENAHDESAYLDNLKKELANGNDALRNEDARSPFYSALRNTPSFKERNGGNHDPSRMKAVIYSKHFWSGQDRSSSADKRKYGDPDAFRPAPGTGLVDMSRDRNIPRSPTSPGEGFVNFDYGWFGAQTEADADKTVWTHGNHYHAPNGSLGAMHVYESKFRNWSEGYSDFDRGAYVITFIPKSWNTAPDKVKQGWP	6 groups of the signals were found when the wild type was used	the order of the 15N-labeling rate was S2Y<S2D<wild type<S2R	15N-labeled residue identified by mass spectrometry [1]: in the two glutamine residues in insulin A chain, the 15th glutamine residue was the substrate of MTG
S2Y mutant MTG (Ser2 replaced with Tyr, in Met type MTG) (protein) MDYDDRVTPPAEPLDRMPDPYRPSYGRAETVVNNYIRKWQQVYSHRDGRKQQMTEEQREWLSYGCVGVTWVNSGQYPTNRLAFASFDEDRFKNELKNGRPRSGETRAEFEGRVAKESFDEEKGFQRAREVASVMNRALENAHDESAYLDNLKKELANGNDALRNEDARSPFYSALRNTPSFKERNGGNHDPSRMKAVIYSKHFWSGQDRSSSADKRKYGDPDAFRPAPGTGLVDMSRDRNIPRSPTSPGEGFVNFDYGWFGAQTEADADKTVWTHGNHYHAPNGSLGAMHVYESKFRNWSEGYSDFDRGAYVITFIPKSWNTAPDKVKQGWP		the order of the 15N-labeling rate was S2Y<S2D<wild type<S2R	
S2R mutant MTG (Ser2 replaced with Arg, in Met type MTG) (protein) MDRDDRVTPPAEPLDRMPDPYRPSYGRAETVVNNYIRKWQQVYSHRDGRKQQMTEEQREWLSYGCVGVTWVNSGQYPTNRLAFASFDEDRFKNELKNGRPRSGETRAEFEGRVAKESFDEEKGFQRAREVASVMNRALENAHDESAYLDNLKKELANGNDALRNEDARSPFYSALRNTPSFKERNGGNHDPSRMKAVIYSKHFWSGQDRSSSADKRKYGDPDAFRPAPGTGLVDMSRDRNIPRSPTSPGEGFVNFDYGWFGAQTEADADKTVWTHGNHYHAPNGSLGAMHVYESKFRNWSEGYSDFDRGAYVITFIPKSWNTAPDKVKQGWP		the order of the 15N-labeling rate was S2Y<S2D<wild type<S2R	
S2D mutant MTG (Ser2 replaced with Asp, in Met type MTG) (protein) MDDDDRVTPPAEPLDRMPDPYRPSYGRAETVVNNYIRKWQQVYSHRDGRKQQMTEEQREWLSYGCVGVTWVNSGQYPTNRLAFASFDEDRFKNELKNGRPRSGETRAEFEGRVAKESFDEEKGFQRAREVASVMNRALENAHDESAYLDNLKKELANGNDALRNEDARSPFYSALRNTPSFKERNGGNHDPSRMKAVIYSKHFWSGQDRSSSADKRKYGDPDAFRPAPGTGLVDMSRDRNIPRSPTSPGEGFVNFDYGWFGAQTEADADKTVWTHGNHYHAPNGSLGAMHVYESKFRNWSEGYSDFDRGAYVITFIPKSWNTAPDKVKQGWP		the order of the 15N-labeling rate was S2Y<S2D<wild type<S2R	
del 1-3 mutant MTG (residue Nos. 1 to 3 removed) (protein) DRVTPPAEPLDRMPDPYRPSYGRAETVVNNYIRKWQQVYSHRDGRKQQMTEEQREWLSYGCVGVTWVNSGQYPTNRLAFASFDEDRFKNELKNGRPRSGETRAEFEGRVAKESFDEEKGFQRAREVASVMNRALENAHDESAYLDNLKKELANGNDALRNEDARSPFYSALRNTPSFKERNGGNHDPSRMKAVIYSKHFWSGQDRSSSADKRKYGDPDAFRPAPGTGLVDMSRDRNIPRSPTSPGEGFVNFDYGWFGAQTEADADKTVWTHGNHYHAPNGSLGAMHVYESKFRNWSEGYSDFDRGAYVITFIPKSWNTAPDKVKQGWP			reactivity to the ovalbumin glutamine residue giving signal "a" (1H-15N HSQC peak intensity vs. reaction time) (ovalbumin, P01012): the reactivity of each of del 1-2 and del 1-3 was improved as compared with that of the wild type; also recorded: the reactivity of del 1-3 was even much higher than that of Ser type or S2R
